Measurements published in patent US20250250330A1 (REVOPSIS THERAPEUTICS, published 2025).
Several values for one entry are separate records, joined by “and”; a condition that tells them apart may be missing. Identical values can stand only once. Like-named read-outs stand apart in the source and are kept apart here.

Tests used:
[1] = molecular target: T1, His-tagged recombinant human ANG-2 (AcroBiosystems, Cat #AN2-H52H4) (human, UniProt O15123 275-496); assay: ELISA EC50 on rhANG-2, against Faricimab
T1 construct: also called rhANG-2; rhANG-2-His; not shown: His tag
T1 sequence (looked up): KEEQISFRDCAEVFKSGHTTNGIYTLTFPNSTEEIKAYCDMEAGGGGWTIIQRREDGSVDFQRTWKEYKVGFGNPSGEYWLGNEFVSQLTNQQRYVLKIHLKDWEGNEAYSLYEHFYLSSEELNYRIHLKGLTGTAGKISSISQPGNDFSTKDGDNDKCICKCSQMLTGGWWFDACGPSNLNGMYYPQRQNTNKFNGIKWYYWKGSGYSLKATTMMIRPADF
Method: Donkey anti-human IgG Fcγ-HRP (Jackson ImmunoResearch Laboratories, Cat #709-035-098) was used for detection and visualized by TMB substrate. OD450 nm readings were measured by Victor 3 with PerkinElmer 1420 Multilabel Counter.

[2] = molecular target: T2, Recombinant human ANG-2 (R&D Systems, Cat #623-AN-025/CF) (human, UniProt O15123 19-496, limits assumed); assay: ELISA on rhANG-2 by an independent team; first of three runs by an independent team (average 0.0491 nM)
T2 construct: also called rhANG-2
T2 sequence (looked up): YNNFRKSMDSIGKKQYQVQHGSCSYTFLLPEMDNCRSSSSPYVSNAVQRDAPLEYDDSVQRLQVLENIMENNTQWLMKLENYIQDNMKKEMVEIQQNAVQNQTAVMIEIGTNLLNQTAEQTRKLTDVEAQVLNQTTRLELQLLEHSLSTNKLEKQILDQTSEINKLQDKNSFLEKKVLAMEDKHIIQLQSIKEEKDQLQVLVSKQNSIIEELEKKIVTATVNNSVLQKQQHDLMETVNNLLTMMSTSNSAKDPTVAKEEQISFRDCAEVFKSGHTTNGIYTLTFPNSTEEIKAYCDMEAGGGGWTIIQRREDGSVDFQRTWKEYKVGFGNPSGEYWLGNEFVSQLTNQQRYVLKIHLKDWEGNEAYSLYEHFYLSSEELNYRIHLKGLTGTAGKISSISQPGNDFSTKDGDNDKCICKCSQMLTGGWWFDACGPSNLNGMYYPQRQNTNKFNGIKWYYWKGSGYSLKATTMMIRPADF

[3] = molecular target: T1, His-tagged recombinant human ANG-2 …; assay: competition ELISA; IC50 ratio against Faricimab for inhibition of ANG-2-Tie-2 binding
[4] = molecular target: T3, rrANG-2 (rabbit; Speed Biosystems_YCP8015) (Rabbit, UniProt G1T9B3 19-496); assay: ELISA on coated rabbit ANG-2
T3 construct: Bought protein; also called Rabbit ANG-2
T3 sequence: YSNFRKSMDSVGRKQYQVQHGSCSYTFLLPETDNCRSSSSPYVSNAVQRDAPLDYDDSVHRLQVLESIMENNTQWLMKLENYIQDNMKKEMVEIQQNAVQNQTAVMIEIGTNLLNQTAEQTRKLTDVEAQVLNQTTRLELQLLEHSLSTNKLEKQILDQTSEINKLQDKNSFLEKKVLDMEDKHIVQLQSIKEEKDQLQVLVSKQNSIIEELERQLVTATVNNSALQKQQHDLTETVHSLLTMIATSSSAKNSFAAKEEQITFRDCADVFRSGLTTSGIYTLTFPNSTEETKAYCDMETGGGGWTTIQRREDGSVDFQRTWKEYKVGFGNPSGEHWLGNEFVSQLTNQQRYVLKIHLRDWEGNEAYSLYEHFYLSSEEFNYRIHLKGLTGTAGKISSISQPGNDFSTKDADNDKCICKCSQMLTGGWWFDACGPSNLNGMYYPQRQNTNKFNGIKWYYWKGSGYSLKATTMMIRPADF

[5] = molecular target: T4, Recombinant human VEGF165 (Peprotech, Cat #100-20) (human, UniProt P15692-4 27-191); assay: ELISA; rhVEGF165 coated, anti-human IgG Fc-HRP detection
T4 construct: Bought protein; also called rhVEGF165; rh VEGF165
Method: VEGF₁₆₅ was used to coat Corning 9017 medium binding plates. […] Donkey anti-human IgG Fcγ-HRP (Jackson ImmunoResearch Laboratories, Cat #709-035-098) was used for detection and visualized by TMB substrate. OD450 nm readings were measured by Victor 3 with PerkinElmer 1420 Multilabel Counter.

[6] = molecular target: T2, Recombinant human ANG-2 (R&D Systems, …); assay: ELISA; rhANG-2 (R&D) coated, anti-human IgG Fc-HRP detection
Excerpt: (§1) The binding was detected by HRP-conjugated donkey anti-human IgG Fcγ antibody (Jackson ImmunoResearch Laboratories, Cat #709-035-098).

[7] = molecular target: T5, rhVEGF-B_Peprotech (Peprotech_100-20B) (human, UniProt P49765-2 22-188); assay: ELISA; target coated at 1 ug/mL, anti-human IgG Fc-HRP detection
T5 construct: Bought protein
T5 sequence (looked up): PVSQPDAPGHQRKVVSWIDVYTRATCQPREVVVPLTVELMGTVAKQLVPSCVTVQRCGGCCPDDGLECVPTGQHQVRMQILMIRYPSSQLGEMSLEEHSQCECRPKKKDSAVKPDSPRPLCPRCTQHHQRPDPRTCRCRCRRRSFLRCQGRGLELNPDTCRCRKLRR
Method: First, the binding to rhVEGF-B was tested in comparison with rhVEGF₁₆₅. rhVEGF-B or rhVEGF₁₆₅ was used to coat Corning 9017 medium binding plates at 1 μg/mL and […] per well. […] Donkey anti-human IgG Fcγ-HRP was used for detection. OD450 nm readings were measured by Victor 3.

[8] = molecular target: T2, Recombinant human ANG-2 (R&D Systems, …); assay: ELISA on rhANG-2 by an independent team; average of three values
[9] = molecular target: T4, Recombinant human VEGF165 (Peprotech, …); assay: ELISA; rhVEGF165 coated, anti-human IgG Fc-HRP detection; remark: listed apart in the source
Excerpt: as §1

B1: RO-101 VEGF/ANG-2 bispecific surrobody (bispecific antibody, human IgG1, L234A L235A)
heavy 1: not shown
heavy 2: EVQLVESGGGLVKPGGSLRLSCAASGFTFSSYGMHWVRQAPGKGLEWVAGISADSGDKNYADSVKGRFTISRDNAKNSLYLQMNSLRAEDTAVYYCAKEFISWIYTFDYLDYWGQGTLVTVSSASTKGPSVFPLAPSSKSTSGGTAALGCLVKDYFPEPVTVSWNSGALTSGVHTFPAVLQSSGLYSLSSVVTVPSSSLGTQTYICNVNHKPSNTKVDKKVEPKSCDKTHTCPPCPAPEAAGGPSVFLFPPKPKDTLMISRTPEVTCVVVDVSHEDPEVKFNWYVDGVEVHNAKTKPREEQYNSTYRVVSVLTVLHQDWLNGKEYKCKVSNKALPAPIEKTISKAKGQPREPQVCTLPPSRDELTKNQVSLSCAVKGFYPSDIAVEWESNGQPENNYKTTPPVLDSDGSFFLVSKLTVDKSRWQQGNVFSCSVMHEALHNHYTQKSLSLSPG
light: QPVLHQPPAMSSALGTTIRLTCTLRNDHDIGVYSVYWYQQRPGHPPRFLLRYFSQSDKSQGPQVPPRFSGSKDVARNRGYLSISELQPEDEAMYYCAMGARSSVTHVFGSGTQLTVLSQPKATPSVTLFPPSSEELQANKATLVCLMNDFYPGILTVTWKADGTPITQGVEMTTPSKQSNNKYAASSYLSLTPEQWRSRRSYSCQVMHEGSTVEKTVAPAECS
notes: Format SgG1; also called Sample 1
[1]
  RO-101/Faricimab Fold: 53 fold
[2]
  EC50: 0.0526 nM
[3]
  Fold: 17.2 fold
[4]
  EC50: 0.011 nM
[5]
  EC50: 0.0231 nM
[6]
  EC50: 0.0536 nM and 0.0498 nM and 0.0449 nM
[7]
  EC50: > 100 nM
[8]
  average EC50: 0.0491 nM
[9]
  EC50: 0.0401 nM and 0.0556 nM and 0.0417 nM
